Substrate: CC(C)C[C@H](N)C(=O)Nc1ccc([N+](=O)[O-])cc1
Test: purified protein
Assay type: biochemical, Anopheles gambiae
Details: 1 mM MnCl2, pH 7.5, 10 mM Tris-HCl, 150 mM NaCl, 25 °C

B1: AnAPN1 (near full-length recombinant, rFL-APN1) (Anopheles gambiae) (protein)
chain: PPYKSSGIYEEEPQLPGASDLSGGVASDEIGVAPAQAVDERYRLPTTSIPIHYDLHLRTEIHRNERTFTGTVGIQLQVVQATDKLVMHNRGLVMSSAKVSSLPNGVTGAPTLIGDVQYSTDTTFEHITFTSPTILQPGTYLLEVAFQGRLATNDDGFYVSSYVADNGERRYLATTQFESTSARMAFPCYDEPGLKATFTVSITHSLSYKAISNMPQKTTTDIETDMRTTFFEKTPAMSTYLLAFVVSDFQLRLSGAQRVYVRPNAFNEATFALEAGVKILKVLDDHLGIPYDTYMPKLDQIAIPDFAAGAMENWGLVTYREQALLFNPAVSTYRGKTNVATTIAHEYAHQWFGNLVSPEWWEYIWLNEGFATLYEFYALDMAYPGQEYWELFNQQVIQYAMGQDGQASTRPMNWNAATPGEISALFDRVAYDKSGSVLNMMRHVLGDDNWKAGLKAYLTDRALQGAVDEQLYAGLQSAIEGKGVLPNGVTVAQIMRTWTNEAGYPVLNVRRSYDTGDVIISQERFYNDRKVPNTNIWMIPYNYVHQAKADFNEFDDFQWLATKAARIETTVPANEWIVFNKQQVGYYRVNYDEHNWELITNALHENWASIHRLNRAQLIDDAYWLARSGRLDLRVALRFMTYLRNEREYAPWTAANVALTYFNNRLRGTAEYHNFLIFVDALIEDIYSLLTIDAVSPDDTLLHKYLVQTISTWACSMGYTDCLMKTAALLKAEASGTGPAVHPDIASVTYCYGMRSALESEFQYLYRKMMNSKNLAERTMLIDSLGCSNNKEFLKAFLTTALGSGTGVEINYRADERRRVVQAIYSGGRTGVDALIEFLMDPALVNEFVSTLSTSTLNSALSAIASRTNNVEEMNKLNALITALGSRVNSQTAANLRTTAQANLDWVNGFEGLMLSNFLAE
With B1 the Km was 1840 µM.
